Patent US20220235142A1 (SHANGHAI GENBASE BIOTECHNOLOGY, published 2022)

How the values were obtained:
[1] = target: T1, human CEACAM5 protein naturally expressed on LOVO tumor cells (human, UniProt P06731 35-685); experiment: flow cytometry on LOVO tumor cells that naturally express human CEACAM5
T1 construct: whole, on cells; Cell-surface CEACAM5 on tumor cell lines; also called LOVO cells; CEACEM5
T1 sequence (looked up): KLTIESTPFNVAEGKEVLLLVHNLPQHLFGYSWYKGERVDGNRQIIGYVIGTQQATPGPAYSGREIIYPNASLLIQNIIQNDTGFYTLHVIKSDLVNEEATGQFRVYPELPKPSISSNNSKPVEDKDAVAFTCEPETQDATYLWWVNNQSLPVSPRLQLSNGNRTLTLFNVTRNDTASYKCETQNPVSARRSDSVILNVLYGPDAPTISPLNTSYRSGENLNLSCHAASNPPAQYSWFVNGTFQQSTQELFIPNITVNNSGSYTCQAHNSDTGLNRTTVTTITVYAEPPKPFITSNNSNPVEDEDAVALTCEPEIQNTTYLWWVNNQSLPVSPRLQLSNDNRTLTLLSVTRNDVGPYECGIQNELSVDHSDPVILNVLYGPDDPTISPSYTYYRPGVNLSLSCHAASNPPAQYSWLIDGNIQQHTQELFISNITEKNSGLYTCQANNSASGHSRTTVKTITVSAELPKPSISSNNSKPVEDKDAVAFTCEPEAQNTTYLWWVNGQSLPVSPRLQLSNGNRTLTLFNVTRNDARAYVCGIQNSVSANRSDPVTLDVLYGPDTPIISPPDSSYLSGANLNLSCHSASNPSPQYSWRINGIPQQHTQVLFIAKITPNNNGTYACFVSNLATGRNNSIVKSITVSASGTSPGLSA
Protocol: (§1) Flow cytometry (FACS) was used to detect the binding of antibody to LOVO tumor cells that naturally expressed human CEACAM5 protein or cells that overexpressed different CEACAM proteins. In short, cells were first collected, washed with PBS, counted, and diluted to obtain 2*10⁶/ml cell suspension; 10 μl of an antibody working solution was added to 100 μl of the cell suspension, and incubated at 4° C. for 30 min in the dark; after washing twice with PBS, a corresponding fluorescent-labeled secondary antibody Goat-anti-Human IgG (H+L) (Invitrogen) was added, incubated at 4° C. for 30 min in the dark, after washing twice with PBS, it was suspended in 400 μl of FACS buffer, and the binding situations of the antibody to the cells were detected by FACS.
Furthermore, we used FACS to detect the EC50 of the chimeric antibody UM05-6L binding to LOVO tumor cells that naturally expressed human CEACAM5. […] Based on the above results, the chimeric antibody UM05-6L had excellent binding affinity, specificity and selectivity to CEACAM5.

[2] = target: T2, human CEACAM5 protein (human, UniProt P06731 35-685, limits assumed); experiment: ELISA, plate coated with human CEACAM5 protein at 1 µg/mL, goat anti-human IgG HRP
T2 construct: Protein used as ELISA coating; the immunogen was CEACAM5 protein (L2C01001) purified from tumor patients; also called CD66e; carcinoembryonic antigen cell adhesion molecule 5
T2 sequence (looked up): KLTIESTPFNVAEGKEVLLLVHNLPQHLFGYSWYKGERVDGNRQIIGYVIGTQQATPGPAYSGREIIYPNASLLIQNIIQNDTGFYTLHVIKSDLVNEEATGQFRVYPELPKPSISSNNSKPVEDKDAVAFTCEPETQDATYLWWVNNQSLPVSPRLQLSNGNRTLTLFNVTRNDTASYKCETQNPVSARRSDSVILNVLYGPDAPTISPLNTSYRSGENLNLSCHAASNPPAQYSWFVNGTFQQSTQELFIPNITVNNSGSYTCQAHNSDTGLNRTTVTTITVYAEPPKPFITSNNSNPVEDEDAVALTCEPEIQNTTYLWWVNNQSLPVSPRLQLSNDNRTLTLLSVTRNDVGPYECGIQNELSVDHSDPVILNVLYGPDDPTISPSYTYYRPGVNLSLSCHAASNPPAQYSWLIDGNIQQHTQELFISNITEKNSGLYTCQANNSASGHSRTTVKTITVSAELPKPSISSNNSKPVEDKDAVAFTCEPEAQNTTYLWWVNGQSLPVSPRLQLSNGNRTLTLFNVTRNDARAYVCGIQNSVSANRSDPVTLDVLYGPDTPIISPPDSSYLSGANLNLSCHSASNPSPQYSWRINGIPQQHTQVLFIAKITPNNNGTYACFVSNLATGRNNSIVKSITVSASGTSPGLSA
Protocol: On the next day, it was first washed with 300 μL of PBST (Tween20: 0.5‰) for 3 times, then blocked with 100 μL/well of 5% BSA/PBS for 1 hour, and shaken at room temperature. Washing was performed 3 times with 300 μL of PBST. A series of dilution solutions of antibody samples were prepared with PBS, and added at 100 μL/well to the 96-well plate and shaken at room temperature for 1 hour. Washing was performed 3 times with 300 μL of PBST. A secondary antibody goat anti-human IgG HRP solution was prepared, added at 100 μL/well to the 96-well plate, and shaken at room temperature for 30 minutes. Washing was performed 4 times with 300 μL of PBST. 100 μL/well TMB was added to perform color development for 20 min. 100 μL/well of 0.6N H₂SO₄ was added to stop the color development, and OD450 nm was detected.

[3] = target: T3, CEACAM1 protein overexpressed on SW620 cells (UniProt P13688 35-526, limits assumed); experiment: flow cytometry on SW620-CEACAM1 cells
T3 construct: whole, on cells; also called SW620-CEACAM1
T3 sequence (looked up): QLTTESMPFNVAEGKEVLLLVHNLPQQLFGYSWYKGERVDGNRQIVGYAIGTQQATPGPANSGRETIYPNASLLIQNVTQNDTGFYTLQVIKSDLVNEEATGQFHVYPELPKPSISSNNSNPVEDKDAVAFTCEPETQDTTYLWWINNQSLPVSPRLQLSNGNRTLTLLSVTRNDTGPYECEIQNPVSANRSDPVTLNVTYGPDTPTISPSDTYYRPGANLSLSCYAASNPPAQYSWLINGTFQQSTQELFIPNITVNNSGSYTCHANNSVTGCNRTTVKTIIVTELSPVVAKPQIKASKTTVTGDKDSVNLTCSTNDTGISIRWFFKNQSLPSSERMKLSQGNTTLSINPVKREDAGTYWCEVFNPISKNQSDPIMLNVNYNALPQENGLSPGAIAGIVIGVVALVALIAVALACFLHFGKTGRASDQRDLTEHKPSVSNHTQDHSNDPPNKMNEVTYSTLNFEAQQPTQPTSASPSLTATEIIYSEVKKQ
Protocol: as §1
(§2) The binding situations of the supernatants of the chimeric antibody UM05-6L and the control antibody UM05-8 (anti-CEACAM5 antibody, prepared by the hybridoma method in our laboratory) to different cells at a concentration of 3 μg/mL were detected, in which SW620-CEACAM1 was a cell overexpressing CEACAM1 protein, SW620-CEACAM3 was a cell overexpressing CEACAM3 protein, CHO-CEACAM6 was a cell overexpressing CEACAM6 protein, CHO-CEACAM7 was a cell overexpressing CEACAM7 protein, and CHO-CEACAM8 was a cell overexpressing CEACAM8 protein. […]

[4] = target: T4, CEACAM7 protein overexpressed on CHO cells (UniProt Q14002 36-242, limits assumed); experiment: flow cytometry on CHO-CEACAM7 cells
T4 construct: whole, on cells; also called CHO-CEACAM7
T4 sequence (looked up): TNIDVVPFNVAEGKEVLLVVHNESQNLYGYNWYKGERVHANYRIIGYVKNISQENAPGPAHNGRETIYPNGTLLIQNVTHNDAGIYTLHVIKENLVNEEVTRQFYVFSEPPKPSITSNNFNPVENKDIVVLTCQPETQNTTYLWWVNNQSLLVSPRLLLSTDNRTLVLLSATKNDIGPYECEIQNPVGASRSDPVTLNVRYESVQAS
Protocol: as §1, §2

[5] = target: T5, CEACAM3 protein overexpressed on SW620 cells (UniProt P40198 35-252, limits assumed); experiment: flow cytometry on SW620-CEACAM3 cells
T5 construct: whole, on cells; also called SW620-CEACAM3
T5 sequence (looked up): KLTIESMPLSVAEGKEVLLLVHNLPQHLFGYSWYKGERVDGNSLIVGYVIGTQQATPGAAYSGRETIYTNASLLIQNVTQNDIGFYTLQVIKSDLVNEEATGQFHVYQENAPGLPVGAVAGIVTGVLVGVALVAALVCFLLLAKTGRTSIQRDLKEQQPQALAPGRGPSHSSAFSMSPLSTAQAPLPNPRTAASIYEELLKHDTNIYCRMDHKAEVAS
Protocol: as §1, §2

[6] = target: T6, CEACAM6 protein overexpressed on CHO cells (UniProt P40199 35-320, limits assumed); experiment: flow cytometry on CHO-CEACAM6 cells
T6 construct: whole, on cells; also called CHO-CEACAM6
T6 sequence (looked up): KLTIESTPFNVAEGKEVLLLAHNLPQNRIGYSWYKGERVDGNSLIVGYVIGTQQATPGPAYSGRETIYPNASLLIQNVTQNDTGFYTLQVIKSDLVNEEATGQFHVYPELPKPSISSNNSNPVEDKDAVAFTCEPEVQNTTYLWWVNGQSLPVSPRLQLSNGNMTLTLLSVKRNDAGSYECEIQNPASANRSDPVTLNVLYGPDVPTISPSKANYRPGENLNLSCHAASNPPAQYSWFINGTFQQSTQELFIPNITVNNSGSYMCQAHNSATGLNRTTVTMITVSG
Protocol: as §1, §2

B1: human-mouse chimeric antibody UM05-6L (antibody, human IgG1, kappa, V domains shown)
VH: EVQLQQSGPELVKPGASVKISCKASGYTFTDYYLNWVKQSPGKSLEWIGNINPINDFTTYNQKFKAKATLTVDKSSTTSYMALRSLTSEDSAVYYCTRYDGYFAYWGQGTTLTVSS
VL: DIQMNQSPSSLSASLGDTITITCHASQNINVWLSWYQQKPGNIPKLLIYKASNLHTGVPSRFSGSGSGTGFTLTISSLQPEDIATYYCQQGQSYPWTFGGGTKLEIKR
notes: expressed in HEK293 cells, purified on Protein A
EC50 [1]: 0.276 µg/mL
EC50 [2]: 0.0475 µg/mL
binding result [3]: no binding (tested: 3 µg/mL)
binding result [4]: no binding (tested: 3 µg/mL)
binding result [5]: no binding (tested: 3 µg/mL)
binding result [6]: no binding (tested: 3 µg/mL)
